Values joined by “and” are separate entries in the source; they are usually repeats but may differ in a detail not shown here. Equal entries are not always repeated. Where two headings read alike, the source gives them in different places.

Some targets named below: human IgG3 (human); human IgG4 (human); mouse IgG2a (mouse); mouse IgG1 (mouse); mouse IgG2b (mouse); mouse IgG3 (mouse); rat IgG1 (rat); rat IgG2b (rat); rat IgG2c (rat).
Common to all, as to test: SPR
Background: SPR reads the build-up and loss of mass on a sensor chip optically.

Assay [1] deals with mouse FcRn (FcRn/β2m heterodimer, soluble extracellular domain) (mouse) (UniProt Q61559).
For assay [2], the target named is rat FcRn (FcRn/β2m heterodimer, soluble extracellular domain) (rat) (UniProt P13599).
In assay [3] the target is mouse FcRn (FcRn/β2m heterodimer, soluble extracellular domain) (mouse) (UniProt Q61559). The source holds these as a separate data set.
The target of assay [4] is rat FcRn (FcRn/β2m heterodimer, soluble extracellular domain) (rat) (UniProt P13599). The source holds these as a separate data set.
The target in assay [5] is trastuzumab hIgG1 AAA:N434H E:R heterodimer (human).
In assay [6] the target is trastuzumab hIgG1 AAA:N434Y E:R heterodimer (human).
Assay [7] addresses trastuzumab hIgG1 AAA:WT E:R heterodimer (human).
In assay [8] the target is trastuzumab hIgG1 I253A:WT E:R heterodimer (human).
For assay [9], the target named is trastuzumab hIgG1 N434H (homodimer) (human).
Assay [10] has as its target trastuzumab hIgG1 N434Y (homodimer) (human).
Assay [11] has as its target trastuzumab hIgG1 N434Y R arm (parental) (human).
Assay [12] deals with trastuzumab hIgG1 WT E arm (parental) (human).
For assay [13], the target named is trastuzumab hIgG1 WT R arm (parental) (human).
The target in assay [14] is trastuzumab hIgG1 WT:WT E:R heterodimer (human).
Assay [15] addresses trastuzumab hIgG1 wild type (homodimer) (human).
Assay [16] deals with trastuzumab hIgG1 N434Y (homodimer) (human). The source holds these as a separate data set.
In assay [17] the target is mouse FcRn (FcRn/β2m heterodimer, soluble extracellular domain) (mouse) (UniProt Q61559). The source holds these as a separate data set.
The target in assay [18] is rat FcRn (FcRn/β2m heterodimer, soluble extracellular domain) (rat) (UniProt P13599). This is another data set of the same source.
Assay [19] concerns the target mouse FcRn (FcRn/β2m heterodimer, soluble extracellular domain) (mouse) (UniProt Q61559). The source holds these as a separate data set.
The target of assay [20] is rat IgG2a (panel of unrelated mAbs of subtype rIgG2a) (rat).
Assay [21] deals with cynomolgus monkey IgG1 (cynomolgus monkey).
Assay [22] addresses cynomolgus monkey IgG2 (cynomolgus monkey).
Assay [23] concerns the target human IgG1 (category of several hIgG1 molecules) (human).
Assay [24] addresses human IgG2 (category of several hIgG2 molecules) (human).
For assay [25], the target named is rat IgG2a (panel of unrelated mAbs of subtype rIgG2a) (rat). This is another data set of the same source.
Assay [26] has as its target rhesus monkey IgG1 (rhesus monkey).
Assay [27] has as its target rhesus monkey IgG2 (rhesus monkey).

On to “trastuzumab hIgG1 AAA:N434H E:R heterodimer (antibody)”, for which the equilibrium dissociation constant (Kd) in assay [1] came to 3.6 nM; in [2], 8 nM; in assay [3], 3.8 nM; in assay [4], 4.9 nM.
In the same order, the values of “trastuzumab hIgG1 AAA:WT E:R heterodimer (antibody)” are 49 nM, 67 nM, 54 nM and 46 nM.
For “mouse FcRn (FcRn/β2m heterodimer, soluble extracellular domain) (from UniProt Q61559;P01887) (receptor)”, the Kd in the assay with human IgG3 (human) was 230 nM and 353 nM and 328 nM; with human IgG4 (human), 116 nM and 197 nM and 183 nM; with mouse IgG2a (mouse), 490 nM and 931 nM; in [6] it was 0.47 nM; in assay [7] it was 58 nM; in assay [8], 58 nM. Moreover, the dissociation constant Kd in [10] turned out to be 0.47 nM; in [11], 0.47 nM; in assay [12], 58 nM; in assay [13], 58 nM; in assay [14], 58 nM; in assay [15], 58 nM. The same molecule displayed a Kd in assay [16] of 44.1 nM. Also, the stoichiometry N in [5] was 1 FcRn per IgG; in assay [6], 1 FcRn per IgG; in assay [7], 1 FcRn per IgG; in assay [9], 2 FcRn per IgG; in assay [10], 2 FcRn per IgG; in [15], 2 FcRn per IgG.
“rat FcRn (FcRn/β2m heterodimer, soluble extracellular domain) (from UniProt P13599;P07151) (receptor)”: the Kd in assay [9] is 9.9 nM; in [10], 4.5 nM; in assay [15] it was 84 nM; in assay [16], 455 nM.
Take “human FcRn (FcRn/β2m heterodimer, soluble extracellular domain) (from UniProt P55899;P61769) (receptor)”: the Kd in the assay with human IgG3 (human) is 585 nM and 898 nM; with human IgG4 (human) it was 717 nM and 973 nM.
Take “trastuzumab hIgG1 N434Y (homodimer) (antibody)”: the dissociation constant Kd in assay [17] came out at 36 nM; in assay [18], 460 nM; in assay [3], 0.292 nM; in [4], 3.3 nM.
Consider “trastuzumab hIgG1 N434H (homodimer) (antibody)”, for which the results for the Kd in assay [3] and in assay [4] were 3.7 nM and 5.4 nM, respectively.
On to “trastuzumab hIgG1 AAA:N434Y E:R heterodimer (antibody)”, for which the Kd is 0.35 nM in assay [1]; 3.5 nM in assay [2]; 66 nM in [19]; 50 nM and 52 nM in [17]; 0.28 nM in assay [3]; 2.7 nM in assay [4].
Regarding “trastuzumab hIgG1 wild type (homodimer) (antibody)”, the dissociation constant Kd in assay [3] was determined as 48 nM; in assay [4], 49 nM.
Take “cynomolgus monkey FcRn (FcRn/β2m heterodimer, soluble extracellular domain) (from UniProt Q8SPV9;Q8SPW0) (receptor)”: the Kd in the assay with human IgG3 (human) was 188 nM and 213 nM and 387 nM; in the assay with human IgG4 (human) it was 258 nM and 266 nM and 450 nM.

B1: rat FcRn (FcRn/β2m heterodimer, soluble extracellular domain) (receptor)
chain 1: AEPRLPLMYHLAAVSDLSTGLPSFWATGWLGAQQYLTYNNLRQEADPCGAWIWENQVSWYWEKETTDLKSKEQLFLEAIRTLENQINGTFTLQGLLGCELAPDNSSLPTAVFALNGEEFMRFNPRTGNWSGEWPETDIVGNLWMKQPEAARKESEFLLTSCPERLLGHLERGRQNLEWKEPPSMRLKARPGNSGSSVLTCAAFSFYPPELKFRFLRNGLASGSGNCSTGPNGDGSFHAWSLLEVKRGDEHHYQCQVEHEGLAQPLTVDL
chain 2: IQKTPQIQVYSRHPPENGKPNFLNCYVSQFHPPQIEIELLKNGKKIPNIEMSDLSFSKDWSFYILAHTEFTPTETDVYACRVKHVTLKEPKTVTWDRDM
In the case of B1, the dissociation constant Kd in assay [20] is 44 nM and 69 nM and 55 nM; in assay [21], 88 nM and 123 nM; in assay [22], 38 nM and 51 nM; in assay [23], 68 nM and 135 nM; in assay [24] it was 53 nM and 93 nM; with human IgG3 (human), 313 nM and 357 nM and 366 nM. For the same molecule, the Kd with human IgG4 (human) was 123 nM and 149 nM and 145 nM; in the assay with mouse IgG1 (mouse), 501 nM and 567 nM; with mouse IgG2a (mouse), 97 nM and 150 nM; with mouse IgG2b (mouse), 332 nM and 368 nM; with mouse IgG3 (mouse) it was 183 nM; with rat IgG1 (rat), 285 nM and 329 nM. Further, the Kd was 45 nM and 76 nM in assay [25]; 186 nM and 248 nM with rat IgG2b (rat); 452 nM and 617 nM with rat IgG2c (rat); 88 nM and 119 nM in [26]; 41 nM and 51 nM in [27]. In [20], this molecule yielded a koff of 0.0119 s⁻¹. Further, the kon in assay [20] is 220000 M⁻¹ s⁻¹.

As usually defined, the Kd is a measure of binding affinity in units of concentration. As a reminder, the stoichiometry N is the number of molecules, sites or subunits per partner or assembly. By koff is commonly meant the rate constant with which the complex falls apart. The term kon denotes the rate constant with which the complex forms.

The values above are taken from publication PMC4622529.
